From article PMC6153280, “Roles of distal aspartate and arginine of B-class dye-decolorizing peroxidase in heterolytic hydrogen peroxide cleavage” (The Journal of Biological Chemistry, 2018)

Experiments:
[1] = target: KpDyP double variant D143A/R232A (Klebsiella pneumoniae); experiment: SEC-MALS; HPLC-SEC combined with multiangle light scattering; data not shown; conditions not given
[2] = target: Asp143 (UniProt position 143, LSGFVDGTENP); experiment: kinetics; conditions: 25 °C; 2 µM enzyme in 5 mM phosphate citrate buffer, pH 7.0, mixed with H2O2 in 100 mM phosphate citrate buffer, pH 3.0-8.0, or 100 mM glycine NaOH buffer, pH 8.0-10.0; ferric high-spin resting enzyme, folded, reacting with H2O2
[3] = target: KpDyP variant D143A (Klebsiella pneumoniae); experiment: SEC-MALS; HPLC-SEC combined with multiangle light scattering; data not shown; conditions not given
[4] = target: KpDyP variant R232A (Klebsiella pneumoniae); experiment: as above
[5] = target: the molecule itself; experiment: as above

“KpDyP double variant D143A/R232A (enzyme)” showed a stoichiometry N [1] of 2.

“B-class dye-decolorizing peroxidase (KpDyP) (Klebsiella pneumoniae)” was tested, and the pKa [2] was “far below 4.0”.

In the case of KpDyP variant D143A (enzyme), the stoichiometry N [3] is reported as 2.

KpDyP variant R232A (enzyme) showed a stoichiometry N [4] of 2.

B1: WT B-class dye-decolorizing peroxidase from Klebsiella pneumoniae (KpDyP) (enzyme, UniProt A0A0W8ATM9 1-299, looked up)
chain: MSQVQSGILPEHCRAAIWIEANLKGDVNALREASKIFVDNVATFQAKFPDAKLGAVVAFGNNVWRQLSGGEGADELKDFPVYGKGLAPSTQYDLLIHILSARHEVNFSVAQAALAAFGDAIDVKEEIHGFRWVEERDLSGFVDGTENPAGEETRREVAVIKDGVDAGGSYVFVQRWEHNLKQLNRMSVPDQEMMIGRTKDANEEIDGDERPVTSHLSRVDLKEDGKGLKIVRQSLPYGTASGTHGLYFCAYCARLYNIEQQLLSMFGDTDGKRDAMLRFTKPVTGGYYFAPSLERIQAL
notes: B-class dye-decolorizing peroxidase (KpDyP), Klebsiella pneumoniae; codon-optimized DNA cloned into pGEX-6P1 with primers that run from the ATG start to the stop codon; about 35 kDa per subunit; One heme b per subunit; also called WT KpDyP; source: E. coli BL21 (DE3) pLysS, purified (GSTrap, on-column HRV 3C cleavage, SEC)
For B1, the “stoichiometry N” value [5] was 2.
